Laboratory results taken from the Human Domainome abundance scans (Beltran et al. 2025).
± gives the uncertainty stated by the source.

B1: Dynamin-binding protein, residues 242 to 304; numbered along this chain, Q6XZF7 (parent)
chain: EEPGTYGVALYRFQALEPNELDFEVGDKIRILATLEDGWLEGSLKGRTGIFPYRFVKLCPDTR
B2: Zinc finger MYM-type protein 6, residues 427 to 504; numbered along this chain, O95789 (parent)
chain: KLKCQHCNHLFATKPELLFYKGKMFLFCGKNCSDEYKKKNKVVAMCDYCKLQKIIKETVRFSGVDKPFCSEVCKFLSA

Variants of: B1
Test: abundance fitness (aPCA) (normalised: wild type 0, dead -1); higher = more abundant; growth selection in yeast, the domain comes from the species named
Details: Homo sapiens

Variant | abundance fitness
C59I | 0.038 ± 0.061
I31A | -1.03 ± 0.21
I31R | -0.883 ± 0.14
T34F | -0.063 ± 0.058
P52R | -0.855 ± 0.088
W39R | -0.144 ± 0.058
P3V | -0.169 ± 0.068
P3R | -0.114 ± 0.059
P3G | -0.222 ± 0.08
G42H | -0.282 ± 0.096
K28L | -0.57 ± 0.11
D27G | -0.776 ± 0.083
D27A | -0.426 ± 0.096
L44T | -0.416 ± 0.14
T5A | -0.083 ± 0.066
G26A | -0.86 ± 0.15
G26D | -0.568 ± 0.091
G26L | -0.598 ± 0.087
G26N | -0.563 ± 0.087
Q14S | -0.321 ± 0.056
Q14K | -0.205 ± 0.13
Q14Y | -0.172 ± 0.066

Variant | abundance fitness
G46D | -0.444 ± 0.047
G46V | -0.6 ± 0.041
L21R | -0.839 ± 0.11
L21F | -0.771 ± 0.091
L21H | -0.469 ± 0.13
V56P | -0.334 ± 0.14
V56D | -0.716 ± 0.099
V56Y | -0.535 ± 0.094
V56L | -0.412 ± 0.093
K45A | -0.115 ± 0.077
Y6W | -0.498 ± 0.27
Y53M | 0.265 ± 0.11
E1R | -0.063 ± 0.12
E1G | -0.163 ± 0.067
G4M | 0.283 ± 0.28
G4H | 0.131 ± 0.066
G4P | 0.214 ± 0.11
L32I | -0.19 ± 0.06
L32W | -0.784 ± 0.2
L35W | -0.642 ± 0.21
L35A | -0.304 ± 0.068
L35S | -0.241 ± 0.051

Variant | abundance fitness
L35R | 0.13 ± 0.052
D22G | -0.02 ± 0.051
D22Y | -0.108 ± 0.051
L10V | -0.252 ± 0.054
R54C | -0.373 ± 0.071
T62K | -0.267 ± 0.15
T62N | 0.105 ± 0.052
G49I | -0.59 ± 0.12
F55R | -0.621 ± 0.049
F55L | -0.126 ± 0.034
F55A | -0.091 ± 0.04
P18C | -0.412 ± 0.061
V25D | -0.899 ± 0.12
V8C | -0.531 ± 0.099
F13D | -0.585 ± 0.086
F13V | -0.71 ± 0.076
D37A | -0.452 ± 0.074
Y11R | 0.206 ± 0.058
Y11G | -0.429 ± 0.067
R47Y | -0.282 ± 0.073
E41N | -0.527 ± 0.1
E41C | -0.115 ± 0.065

Variant | abundance fitness
E20A | -0.163 ± 0.076
E20R | -0.258 ± 0.062
L40S | -0.325 ± 0.057
A9E | -0.73 ± 0.41
E17Y | -0.234 ± 0.066
F51A | -0.919 ± 0.14
F51R | -0.655 ± 0.097
K57R | -0.041 ± 0.047
K57H | -0.136 ± 0.057
T48A | -0.699 ± 0.11
T48D | -0.818 ± 0.11
T48C | -0.286 ± 0.062
L16Q | 0.284 ± 0.12
L16Y | -0.137 ± 0.06
L16I | 0.03 ± 0.06
A33W | -0.671 ± 0.26
A33D | -0.24 ± 0.074
A33R | 0.033 ± 0.067
A33G | -0.201 ± 0.059
P60I | -0.18 ± 0.06
P60V | -0.174 ± 0.053

Variants of: B2
Test: as above
Details: Homo sapiens

Variant | abundance fitness
H9F | -0.153 ± 0.06
H9R | 0.037 ± 0.029
H9S | -0.032 ± 0.039
H9G | 0.014 ± 0.028
H9A | 0.005 ± 0.032
H9P | -0.69 ± 0.07
H9N | -0.011 ± 0.078
H9V | 0.032 ± 0.032
H9M | 0.022 ± 0.052
H9T | 0.042 ± 0.045
H9Y | 0.015 ± 0.49
H9K | 0.034 ± 0.053
H9E | -0.028 ± 0.035
H9C | -0.085 ± 0.042
H9W | -0.069 ± 0.038
H9Q | 0.049 ± 0.041
K3M | -0.192 ± 0.051
K3P | -0.071 ± 0.043
K3R | -0.075 ± 0.032
K3N | -0.011 ± 0.051
K3V | -0.138 ± 0.034
K3G | -0.078 ± 0.029
K3W | -0.243 ± 0.042
K3H | -0.156 ± 0.096
K3C | -0.163 ± 0.053
K3Q | -0.032 ± 0.038
K3D | -0.186 ± 0.079

Variant | abundance fitness
K3Y | -0.132 ± 0.056
K3T | -0.102 ± 0.046
K3L | -0.073 ± 0.036
K3I | -0.124 ± 0.068
K3S | 0.021 ± 0.042
K3F | -0.116 ± 0.055
K3E | 0.001 ± 0.036
L2V | 0.01 ± 0.031
L2P | -0.068 ± 0.052
L2Q | 0.099 ± 0.059
L2C | -0.089 ± 0.042
L2F | 0.018 ± 0.14
L2G | 0.082 ± 0.028
L2H | -0.131 ± 0.11
L2I | -0.06 ± 0.054
L2A | 0.096 ± 0.03
L2D | 0.069 ± 0.054
L2S | 0.031 ± 0.038
L2R | 0.014 ± 0.028
L2W | -0.119 ± 0.032
L2E | 0.109 ± 0.035
L2M | 0.048 ± 0.084
L2T | 0.125 ± 0.042
K14T | -0.032 ± 0.051
K14R | -0.104 ± 0.031
K14Y | -0.492 ± 0.11
K14D | -0.081 ± 0.068

Variant | abundance fitness
K14V | -0.141 ± 0.033
K14Q | -0.126 ± 0.12
K14L | -0.101 ± 0.033
K14F | -0.298 ± 0.046
K14E | -0.053 ± 0.033
K14C | -0.243 ± 0.096
K14N | -0.1 ± 0.058
K14P | -0.182 ± 0.043
K14S | -0.085 ± 0.035
K14W | -0.408 ± 0.056
K14M | -0.287 ± 0.042
H6G | -0.04 ± 0.027
H6C | -0.046 ± 0.056
H6S | -0.085 ± 0.037
H6E | 0.008 ± 0.034
H6P | -0.993 ± 0.081
H6I | -0.154 ± 0.065
H6A | -0.043 ± 0.031
H6W | -0.102 ± 0.032
H6R | -0.03 ± 0.029
H6K | -0.46 ± 0.43
H6D | -0.1 ± 0.083
H6F | -0.14 ± 0.062
H6L | -0.104 ± 0.035
H6T | -0.079 ± 0.11
H6Q | -0.098 ± 0.037
